Source: article PMC10078426

Assays:
[1] = target: human IgG from serum (human) [IgG part: P01857]; assay: SPR
[2] = target: human IgG from serum (human) [IgG part: P01857]; assay: SPR; preparation #1
[3] = target: human IgG from serum (human) [IgG part: P01857]; assay: SPR; preparation #2

Substance | Kd [1] [nM] | Kd [2] [nM] | Kd [3] [nM]
protein G:HRP (from UniProt P19909) | 18.9 |  | 
protein G: β-galactosidase fusion protein (from UniProt P19909) |  | 33.4 | 41.8
